Measurements published in patent US6602687B1, “DNA encoding human ciliary neurotrophic factor and method for producing the protein encoded thereby” (Regeneron Pharmaceuticals, Inc., priority 1989, dated 2003).

Key:
[1] = test system: E18-19 rat hippocampal neurons; test: GAD enzyme activity in hippocampal cultures; assay type: cell-based; settings: recombinant rat CNTF 0.1 ng/ml; 8 days
Method: Hippocampi were dissected from E18-19 rat embryos of Sprague-Dawley rats, and collected in F10 medium. The tissues were minced, rinsed twice with F10 medium (Gibco) and trypsinized with 0.25% trypsin (Gibco) for 20 minutes at 37° C. Trypsin was inactivated by the addition of a serum-containing medium composed of minimal essential medium (MEM) supplemented with fetal calf serum (FCS, 10%), glutamine (2 mM), penicillin (25 U/ml) and streptomycin (25 ug/ml). Dissociated cells obtained by gentle trituration were collected and centrifuged at low speed (500 rpm) for 30 seconds. The centrifugation was repeated twice, and the cell pellets were then resuspended in serum-containing medium. The cells were then plated onto 6 mm wells or 35 mm dishes that were coated with polyornithine (10 ug/ml) and laminin (10 ug/ml). In most of the experiments, the cells were plated at a low density of approximately 71,000 cells/cm^2. […]
GAD enzyme activity was determined according to the method of Kimura and Kuriyama (1975, Jpn J. Pharm. 25:189-195) by measuring the release of ^14CO2 from L-[1-^14C] glutamic acid. […] The incubation was then continued for another 60 minutes. ^14CO2 released was trapped in Hyamine base solution, and was counted. […]

[2] = test system: Ventral spinal cord neurons; test: Neurofilament (NF) assay in ventral spinal cord neuron cultures; assay type: cell-based, rat; settings: CNTF 10 ng/ml, NGF 50 ng/ml at plating; day 7
Method: Sprague-Dawley rats (HSD or Zivic-Miller) were used for all experiments. Pregnant rats (E14) were sacrificed as described in 10.1.1.
Spinal cords were removed aseptically from rat embryos as described in 10.1.2. The cord tissues were minced into small pieces and incubated in 0.1% trypsin (GIBCO) and 0.01% deoxyribonuclease type 1 (Sigma) at 37° C. for 20 minutes. Trypsin solution was then removed, rinsed and replaced with medium consisting of 45% Eagle's minimum essential medium (MEM), 45% Ham's nutrient mixture F12 (F12), 5% fetal calf serum (GIBCO), 5% horse serum (GIBCO) glutamine (2 mM), penicillin G (0.5 U/ml), and streptomycin (0.5 ug/ml). […] Total cell number yielded was determined by hemocytometer counting in the presence of trypan blue. […]
After fixation of the cells in 4% paraformaldehyde at 4° C. for 2 hours, the cultures were then permeabilized and blocked according to the procedures described in Doherty et al. (1984, J. Neurochem. 42:1116-1122). Neurofilament protein was detected using a monoclonal antibody RT97 (Wood and Anderton, 1981, Biosci. Rep. 1:263-268) at a 1:1000 dilution. The reaction product was visualized using O-phenylenediamine (OPD) as a substrate and optical density was measured at 490 nm.

[3] = test system: Mediodorsal (MD) spinal cord neurons; test: E14 rat mediodorsal spinal cord neuron cultures in defined medium; assay type: cell-based
From the text: Sprague-Dawley rats (HSD) were used for all experiments. Pregnant rats were sacrificed by carbon dioxide asphyxiation, and the embryos were rapidly removed and placed in ice-cold Puck's saline G for further dissection.
Spinal cords were removed aseptically from rat embryos on the 14th day of gestation. The spinal cord was severed caudal to the bulb, freed of sensory ganglia and meninges. The cord was then subdivided into ventral and mediodorsal segments for separate cultures. The cord tissues were minced into small pieces and mechanically dissociated by trituration through a Pasteur pipet in defined culture medium consisting of 50% basal medium Eagle (BME; Gibco) and 50% Ham's nutrient mixture F12 (Gibco) supplemented with glucose (33 mM), glutamine (2 mM, NaHCO3 (15 mM), HEPES (10 mM), insulin (25 μg/ml), transferrin (100 μg/ml) putrescine (60 μM), progesterone (20 nM), Na selenite (30 nM), penicillin G (0.5 μg/ml), streptomycin (0.5 μg/ml), and bovine serum albumin (2.5 μg/ml). Trituration was repeated twice and the supernatants were pooled and filtered through a nylon (Nitex, Tetko) filter (40 μm). Total cell number yielded was determined by hemocytometer counting in the presence of trypan blue. Dissociated ventral cells were then plated at a density of 0.5 million cells/35 mm dish coated with poly-D-lysine (10 μg/ml). Dissociated mediodorsal cells were plated at a density of 1.5 million/35 mm dish coated with poly-D-lysine (10 μg/ml), poly-L-ornithine (10 μg/ml), or poly-L-ornithine with laminin (5 μg/ml). Treatments to these cultures were added at the time of plating. Cultures were maintained at 37° C. in a 95% air/5% CO2 atmosphere at nearly 100% relative humidity. Culture medium was changed every three to four days.

B1: CNTF: ciliary neurotrophic factor; recombinant rat CNTF in Sections 10, 15, 17, purified rat sciatic nerve CNTF in Section 11; see endpoint conditions (protein, UniProt P20294 1-200, looked up)
Ciliary neurotrophic factor: MAFAEQTPLTLHRRDLCSRSIWLARKIRSDLTALMESYVKHQGLNKNINLDSVDGVPVASTDRWSEMTEAERLQENLQAYRTFQGMLTKLLEDQRVHFTPTEGDFHQAIHTLMLQVSAFAYQLEELMVLLEQKIPENEADGMPATVGDGGLFEKKLWGLKVLQELSQWTVRSIHDLRVISSHQMGISALESHYGAKDKQM
[1]
  maximal increase in GAD enzyme activity: 3.8 fold
[2]
  increase in NF content versus untreated controls: 2.0 fold
[3]; 20 ng recombinant rat CNTF in 2 μl E. coli extract per ml at plating, by 48 hours
  survival of MD neurons: increased survival
[3]; CNTF 2 μl/ml (recombinant rat, E. coli extract), NGF 50 ng/ml at plating, day 7, Bradford
  μg protein dish: 120 μg protein dish
[3]; recombinant rat CNTF in E. coli extract, day 7
  protein/dish relative to untreated control and NGF-treated cultures: 6 times
